Source: patent publication US20250296959A1, “B7-H3 TARGETING PEPTIDES AND CONSTRUCTS THEREOF” (Mariana Oncology Inc., priority 2024, published 2025)
Starred links: 1 amine or outer side, 2 acyl side, 3 side chain; linkers in the order of their positions; H or OH if unused. Positions of bridges follow the written chain, without caps; N, C: chain ends. Non-standard residues stand in square brackets, D forms with d. Residues, ends and D or L forms follow the SMILES beside them. Groups on a side chain read outwards from the residue. Primed or numbered codes have the meaning given here. *: point of attachment. X6 = CSCC[C@H](NC(=O)c1ccc(CNC(=O)CN2CCN(CC(=O)O)CCN(CC(=O)O)CCN(CC(=O)O)CC2)cc1)C(=O)N[C@H](C(=O)N[C@@H](CCCCN*)C(=O)O)C(C)C; Ala(piperidin-4-yl) = O=C([C@H](CC1CCN([*:3])CC1)N[*:1])[*:2]; DOTA = O=C(O)CN1CCN(CC(=O)O)CCN(CC(=O)*)CCN(CC(=O)O)CC1; Phe(4-COOH) = N[C@@H](Cc1ccc(C(=O)O)cc1)C(=O)O; Trp(5-F) = N[C@@H](Cc1c[nH]c2ccc(F)cc12)C(=O)O; X1 = C[C@@H](c1ccccc1)[C@H](N[*:1])C(=O)[*:2]; PEG4′ = 4x 3-(2-aminoethoxy)propanoic acid; 1Nal = N[C@@H](Cc1cccc2ccccc12)C(=O)O; Ala(4-THP) = N[C@@H](CC1CCOCC1)C(=O)O; Val(3-OH) = CC(C)(O)[C@H](N)C(=O)O; 4Pal = N[C@@H](Cc1ccncc1)C(=O)O; aThr = C[C@H](O)[C@H](N)C(=O)O; Chg = N[C@H](C(=O)O)C1CCCCC1; Tle = CC(C)(C)[C@H](N)C(=O)O; hLeu = CC(C)CC[C@H](N)C(=O)O; Sar = CNCC(=O)O

T1: human 4lg B7-H3 (Homo sapiens, UniProt Q5ZPR3)
T1 sequence (Q5ZPR3 29-534): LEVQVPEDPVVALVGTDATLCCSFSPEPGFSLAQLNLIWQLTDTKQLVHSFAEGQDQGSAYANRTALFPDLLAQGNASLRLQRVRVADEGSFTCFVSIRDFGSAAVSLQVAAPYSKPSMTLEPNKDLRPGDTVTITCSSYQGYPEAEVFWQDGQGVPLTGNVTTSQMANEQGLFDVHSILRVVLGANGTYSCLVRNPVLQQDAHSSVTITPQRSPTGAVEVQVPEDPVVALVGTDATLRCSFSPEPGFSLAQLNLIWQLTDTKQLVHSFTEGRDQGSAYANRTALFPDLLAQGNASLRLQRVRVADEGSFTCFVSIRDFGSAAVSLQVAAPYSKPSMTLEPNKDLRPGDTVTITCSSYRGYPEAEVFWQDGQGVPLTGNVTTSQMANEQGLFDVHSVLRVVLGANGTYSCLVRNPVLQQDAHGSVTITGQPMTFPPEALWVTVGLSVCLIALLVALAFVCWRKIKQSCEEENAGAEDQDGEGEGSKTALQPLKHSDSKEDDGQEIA

T2: 2Ig B7-H3 (Homo sapiens, UniProt Q5ZPR3)
T2 sequence (Q5ZPR3 29-316 isoform Q5ZPR3-2 limits assumed): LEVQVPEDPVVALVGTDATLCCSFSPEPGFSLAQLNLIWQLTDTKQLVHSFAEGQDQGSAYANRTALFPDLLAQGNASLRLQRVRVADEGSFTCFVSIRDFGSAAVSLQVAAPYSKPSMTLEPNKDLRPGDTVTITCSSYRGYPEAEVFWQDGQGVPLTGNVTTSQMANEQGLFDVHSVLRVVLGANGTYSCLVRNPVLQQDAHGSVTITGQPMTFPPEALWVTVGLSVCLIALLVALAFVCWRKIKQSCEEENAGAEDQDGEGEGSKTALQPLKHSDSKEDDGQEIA

T3: B7-H3 on Calu-6 cells (human, UniProt Q5ZPR3 29-534)
T3 construct: whole, on cells
T3 sequence (looked up): T1 sequence (Q5ZPR3 29-534)

B1: Cpd 200 (peptide)
peptide: Ac-[hLeu]YCVGK[Ala(4-THP)]DVYC[Trp(5-F)]FT[dK](DOTA)-NH2
modifications: disulfide 3-11
SMILES: CC(=O)N[C@@H](CCC(C)C)C(=O)N[C@@H](Cc1ccc(O)cc1)C(=O)N[C@H]1CSSC[C@@H](C(=O)N[C@@H](Cc2c[nH]c3ccc(F)cc23)C(=O)N[C@@H](Cc2ccccc2)C(=O)N[C@H](C(=O)N[C@H](CCCCNC(=O)CN2CCN(CC(=O)O)CCN(CC(=O)O)CCN(CC(=O)O)CC2)C(N)=O)[C@@H](C)O)NC(=O)[C@H](Cc2ccc(O)cc2)NC(=O)[C@H](C(C)C)NC(=O)[C@H](CC(=O)O)NC(=O)[C@H](CC2CCOCC2)NC(=O)[C@H](CCCCN)NC(=O)CNC(=O)[C@H](C(C)C)NC1=O
B2: Cpd 157 (peptide)
peptide: Ac-[hLeu]YC[Tle]GK[4Pal]DVYCWFT[dK](DOTA)-NH2
modifications: disulfide 3-11
SMILES: CC(=O)N[C@@H](CCC(C)C)C(=O)N[C@@H](Cc1ccc(O)cc1)C(=O)N[C@H]1CSSC[C@@H](C(=O)N[C@@H](Cc2c[nH]c3ccccc23)C(=O)N[C@@H](Cc2ccccc2)C(=O)N[C@H](C(=O)N[C@H](CCCCNC(=O)CN2CCN(CC(=O)O)CCN(CC(=O)O)CCN(CC(=O)O)CC2)C(N)=O)[C@@H](C)O)NC(=O)[C@H](Cc2ccc(O)cc2)NC(=O)[C@H](C(C)C)NC(=O)[C@H](CC(=O)O)NC(=O)[C@H](Cc2ccncc2)NC(=O)[C@H](CCCCN)NC(=O)CNC(=O)[C@H](C(C)(C)C)NC1=O
B3: Cpd 190 (peptide)
peptide: Ac-[hLeu]YCVGK[4Pal]D[Chg]YC[Trp(5-F)]FT[dK](DOTA)-NH2
modifications: disulfide 3-11
SMILES: CC(=O)N[C@@H](CCC(C)C)C(=O)N[C@@H](Cc1ccc(O)cc1)C(=O)N[C@H]1CSSC[C@@H](C(=O)N[C@@H](Cc2c[nH]c3ccc(F)cc23)C(=O)N[C@@H](Cc2ccccc2)C(=O)N[C@H](C(=O)N[C@H](CCCCNC(=O)CN2CCN(CC(=O)O)CCN(CC(=O)O)CCN(CC(=O)O)CC2)C(N)=O)[C@@H](C)O)NC(=O)[C@H](Cc2ccc(O)cc2)NC(=O)[C@H](C2CCCCC2)NC(=O)[C@H](CC(=O)O)NC(=O)[C@H](Cc2ccncc2)NC(=O)[C@H](CCCCN)NC(=O)CNC(=O)[C@H](C(C)C)NC1=O
B4: Cpd 286 (peptide)
peptide: Ac-[hLeu]YCVG[Ala(piperidin-4-yl)][Phe(4-COOH)]DVYC[Trp(5-F)]FP[dK](DOTA)-NH2
modifications: disulfide 3-11
SMILES: CC(=O)N[C@@H](CCC(C)C)C(=O)N[C@@H](Cc1ccc(O)cc1)C(=O)N[C@H]1CSSC[C@@H](C(=O)N[C@@H](Cc2c[nH]c3ccc(F)cc23)C(=O)N[C@@H](Cc2ccccc2)C(=O)N2CCC[C@H]2C(=O)N[C@H](CCCCNC(=O)CN2CCN(CC(=O)O)CCN(CC(=O)O)CCN(CC(=O)O)CC2)C(N)=O)NC(=O)[C@H](Cc2ccc(O)cc2)NC(=O)[C@H](C(C)C)NC(=O)[C@H](CC(=O)O)NC(=O)[C@H](Cc2ccc(C(=O)O)cc2)NC(=O)[C@H](CC2CCNCC2)NC(=O)CNC(=O)[C@H](C(C)C)NC1=O
B5: Cpd 179 (peptide)
peptide: Ac-[hLeu]YC[Tle]GKYDVYC[1Nal]FT[dK](DOTA)-NH2
modifications: disulfide 3-11
SMILES: CC(=O)N[C@@H](CCC(C)C)C(=O)N[C@@H](Cc1ccc(O)cc1)C(=O)N[C@H]1CSSC[C@@H](C(=O)N[C@@H](Cc2cccc3ccccc23)C(=O)N[C@@H](Cc2ccccc2)C(=O)N[C@H](C(=O)N[C@H](CCCCNC(=O)CN2CCN(CC(=O)O)CCN(CC(=O)O)CCN(CC(=O)O)CC2)C(N)=O)[C@@H](C)O)NC(=O)[C@H](Cc2ccc(O)cc2)NC(=O)[C@H](C(C)C)NC(=O)[C@H](CC(=O)O)NC(=O)[C@H](Cc2ccc(O)cc2)NC(=O)[C@H](CCCCN)NC(=O)CNC(=O)[C@H](C(C)(C)C)NC1=O
B6: Cpd 74 (peptide)
peptide: Ac-[hLeu]YCV[Sar]KYDVYCWFT[dK](DOTA)-NH2
modifications: disulfide 3-11
SMILES: CC(=O)N[C@@H](CCC(C)C)C(=O)N[C@@H](Cc1ccc(O)cc1)C(=O)N[C@H]1CSSC[C@@H](C(=O)N[C@@H](Cc2c[nH]c3ccccc23)C(=O)N[C@@H](Cc2ccccc2)C(=O)N[C@H](C(=O)N[C@H](CCCCNC(=O)CN2CCN(CC(=O)O)CCN(CC(=O)O)CCN(CC(=O)O)CC2)C(N)=O)[C@@H](C)O)NC(=O)[C@H](Cc2ccc(O)cc2)NC(=O)[C@H](C(C)C)NC(=O)[C@H](CC(=O)O)NC(=O)[C@H](Cc2ccc(O)cc2)NC(=O)[C@H](CCCCN)NC(=O)CN(C)C(=O)[C@H](C(C)C)NC1=O
B7: Cpd 288 (peptide)
peptide: Ac-[hLeu]YCVGK[Ala(4-THP)]DVYC[Trp(5-F)]FP[dK](DOTA)-OH
modifications: disulfide 3-11
SMILES: CC(=O)N[C@@H](CCC(C)C)C(=O)N[C@@H](Cc1ccc(O)cc1)C(=O)N[C@H]1CSSC[C@@H](C(=O)N[C@@H](Cc2c[nH]c3ccc(F)cc23)C(=O)N[C@@H](Cc2ccccc2)C(=O)N2CCC[C@H]2C(=O)N[C@H](CCCCNC(=O)CN2CCN(CC(=O)O)CCN(CC(=O)O)CCN(CC(=O)O)CC2)C(=O)O)NC(=O)[C@H](Cc2ccc(O)cc2)NC(=O)[C@H](C(C)C)NC(=O)[C@H](CC(=O)O)NC(=O)[C@H](CC2CCOCC2)NC(=O)[C@H](CCCCN)NC(=O)CNC(=O)[C@H](C(C)C)NC1=O

Tests used:
human 4lg B7-H3 = biological target: T1, human 4lg B7-H3; experiment: Affinity determination by surface plasmon resonance (SPR) to 4Ig B7-H3; details: SPR KD—37° C., 4Ig B7-H3; 37° C. flow cell temperature
2Ig B7-H3 = biological target: T2, 2Ig B7-H3; experiment: SPR binding affinity to 2Ig B7-H3; details: 37° C.; read-out: 2Ig B7-H3_KD (nM) at 37° C.
B7-H3 on Calu-6 cells [1] = biological target: T3, B7-H3 on Calu-6 cells; experiment: 177Lu-labelled peptide on Calu-6 cells, % cell associated fraction; B = 25<%<=50
B7-H3 on Calu-6 cells [2] = biological target: T3, B7-H3 on Calu-6 cells; experiment: 177Lu-labelled peptide on Calu-6 cells, % cell associated fraction; C = >50%

| Molecule | % cell associated fraction (B7-H3 on Calu-6 cells [1]) [%] | % cell associated fraction (B7-H3 on Calu-6 cells [2]) [%] | further results |
| --- | --- | --- | --- |
| CSCC[C@H](NC(=O)c1ccc(CNC(=O)CN2CCN(CC(=O)O)CCN(CC(=O)O)CCN(CC(=O)O)CC2)cc1)C(=O)N[C@H](C(=O)N[C@@H](CCCCNC(=O)CC[C@@H]1NC(=O)CNC(=O)[C@H](C(C)(C)C)NC(=O)[C@@H](NC(=O)[C@H](Cc2ccc(O)cc2)NC(=O)[C@H](CCC(C)C)NC(C)=O)CSSC[C@@H](C(=O)N[C@@H](Cc2c[nH]c3ccc(F)cc23)C(=O)N[C@H](C(=O)N[C@H](C(=O)N[C@H](CO)C(=O)O)C(C)(C)O)[C@@H](C)c2ccccc2)NC(=O)[C@H](Cc2ccc(O)cc2)NC(=O)[C@H](C(C)C)NC(=O)[C@H](CC(=O)O)NC(=O)[C@H](CC2CCOCC2)NC1=O)C(=O)O)C(C)C [compound 519, Ac-hLeu-Y-C-Tbg-G-Glu[&Lys(OH)-Val-Met-AmBz-DOTA]-ThpA-D-V-Y-C-5FW-[(2S, 3S)beta-Me-Phe]-hydroxyVal-dSer-COOH] (Ac-[hLeu]YC[Tle]GE(X6)[Ala(4-THP)]DVYC[Trp(5-F)][X1][Val(3-OH)][dS]-OH; disulfide 3-11) |  |  | Kd (human 4lg B7-H3): < 1 nM; Kd (2Ig B7-H3): 510 nM |
| Ac-[hLeu]YCVGK[Ala(4-THP)]DVYC[Trp(5-F)]FP[dK]([PEG4′-DOTA])-NH2 (disulfide 3-11) [Cpd 282] | 25 to 50 |  |  |
| B1 |  | > 50 |  |
| B2 | 25 to 50 |  |  |
| B3 |  | > 50 |  |
| Ac-[hLeu]YCVGKYDVYC[Trp(5-F)]F[aThr][dK](DOTA)-NH2 (disulfide 3-11) [Cpd 162] | 25 to 50 |  |  |
| B4 |  | > 50 |  |
| Ac-[hLeu]YCVGKYD[Chg]YC[Trp(5-F)]FT[dK](DOTA)-NH2 (disulfide 3-11) [Cpd 215] |  | > 50 |  |
| B5 | 25 to 50 |  |  |
| Ac-[hLeu]YCIGK[Ala(4-THP)]DVYC[Trp(5-F)]F[Val(3-OH)][dK]([PEG4′-DOTA])-OH (disulfide 3-11) [Cpd 308] |  | > 50 |  |
| Ac-[hLeu]YC[Tle]GK[Ala(4-THP)]DVYC[1Nal]FP[dK]([PEG4′-DOTA])-NH2 (disulfide 3-11) [Cpd 259] | 25 to 50 |  |  |
| B6 | 25 to 50 |  |  |
| Ac-[hLeu]YCVGKYDVYC[Trp(5-F)]FP[dK](DOTA)-NH2 (disulfide 3-11) [Cpd 160] | 25 to 50 |  |  |
| B7 | 25 to 50 |  |  |
